Substrate in the series: O=C(O)[C@H]1O[C@@H](Oc2ccc([N+](=O)[O-])cc2)[C@H](O)[C@@H](O)[C@@H]1O
Briefly: Kinetics of pNPG hydrolysis by E. coli GUS (spectrophotometric p-nitrophenol release). Type of series: biochemical, Escherichia coli. The following applies: other: E. coli GUS, substrate pNPG, 37° C., pH 7.0.

Description: One such substrate is p-nitrophenyl β-D-glucuronide (pNPG), which when cleaved by GUS releases the chromophore p-nitrophenol. At a pH greater than its pKa (approximately 7.15), the ionized chromophore absorbs light at 400–420 nm, therefore appears in the yellow range of visible light. Briefly, reactions are performed in 50 mM Na3PO4 pH 7.0, 10 mM 2-ME, 1 mM EDTA, 1 mM pNPG, and 0.1% Triton® X-100 at 37° C. The reactions are terminated by the addition of 0.4 ml of 2-amino-2-methylpropanediol, and absorbance measured at 415 nm against a substrate blank. Under these conditions, the molar extinction coefficient of p-nitrophenol is assumed to be 14,000: One unit is defined as the amount of enzyme that produces 1 nmole of product/min at 37° C.
Turnover number is calculated as nmoles of pNPG converted to p-nitrophenol per min per μg of purified protein.

B1: E. coli β-glucuronidase (E. coli GUS, GUS^Eco), wild type, SEQ ID NO: 23 (Escherichia coli K-12) (protein)
chain: MLRPVETPTREIKKLDGLWAFSLDRENCGIDQRWWESALQESRAIAVPGSFNDQFADADIRNYAGNVWYQREVFIPKGWAGQRIVLRFDAVTHYGKVWVNNQEVMEHQGGYTPFEADVTPYVIAGKSVRITVCVNNELNWQTIPPGMVITDENGKKKQSYFHDFFNYAGIHRSVMLYTTPNTWVDDITVVTHVAQDCNHASVDWQVVANGDVSVELRDADQQVVATGQGTSGTLQVVNPHLWQPGEGYLYELCVTAKSQTECDIYPLRVGIRSVAVKGEQFLINHKPFYFTGFGRHEDADLRGKGFDNVLMVHDHALMDWIGANSYRTSHYPYAEEMLDWADEHGIVVIDETAAVGFNLSLGIGFEAGNKPKELYSEEAVNGETQQAHLQAIKELIARDKNHPSVVMWSIANEPDTRPQGAREYFAPLAEATRKLDPTRPITCVNVMFCDAHTDTISDLFDVLCLNRYYGWYVQSGDLETAEKVLEKELLAWQEKLHQPIIITEYGVDTLAGLHSMYTDMWSEEYQCAWLDMYHRVFDRVSAVVGEQVWNFADFATSQGILRVGGNKKGIFTRDRKPKSAAFLLQKRWTGMNFGEKPQQGGKQ
notes: pNPG substrate; functional homotetramer
Consider B1, for which the Km is given as 120 μM pNPG μM and the Vmax was found to be 80 nmol/min/µg.

Values taken from patent US7087420B1, “Microbial β-glucuronidase genes, gene products and uses thereof” (Cambia, priority 1997, dated 2006).
